Experimental data from patent US20060073152A1 (Genentech, published 2006).
No end group written: not given here.

Target: T1, human serum albumin (human, UniProt P02768 25-609)
T1 construct: also called Human SA; HuSA
Assay: phage binding

Question: Does GVRTFCQDWPAHNSCKLLRG (on phage) [HA-H73] bind?
Answer: binds

Question: Does KTCYFPGICWM (on phage) [HC-H10] bind?
Answer: binds

Question: Does SYAPCYFPGICWMGN (on phage) [HBC-H8] bind?
Answer: binds

Question: Does ASEICYFPGICWMVE (on phage) [HBC-H12] bind?
Answer: binds

Question: Does DMCYFPGICWL (on phage) [HC-H13] bind?
Answer: binds

Question: Does RAAESSVCYWPGICFDRTEQ (on phage) [HB-H2] bind?
Answer: binds

Question: Does VQEVCYFPGICWMQE (on phage) [HBC-H10] bind?
Answer: binds

Question: Does NDEICYFPGVCWKSG (on phage) [HBC-H11] bind?
Answer: binds

Question: Does GMCYFPGICWA (on phage) [HC-H4] bind?
Answer: binds

Question: Does LVPERIVCYFESICYERSEL (on phage) [HB-H4] bind?
Answer: binds

B1: HBC-H18 (peptide)
peptide: RDTVCYFPGICWMAS
modifications: not fully specified (bridges); cysteine pairing not given here; also: phage-displayed
notes: on phage
Question: Does B1 bind?
Answer: binds

Question: Does EVRSFCTDWPAHYSCTSLQG (on phage) [HA-H74] bind?
Answer: binds

B2: HB-H16 (peptide)
peptide: RMPASLPCYWETICYESSEQ
modifications: not fully specified (bridges); cysteine pairing not given here; also: phage-displayed
notes: on phage
Question: Does B2 bind?
Answer: binds

Question: Does MEPSRSVCYAEGICFDRGEQ (on phage) [HB-H8] bind?
Answer: binds

Question: Does REPASLVCYFEDICFVRAEA (on phage) [HB-H3] bind?
Answer: binds

Question: Does DMCYFPGICFN (on phage) [HC-H18] bind?
Answer: binds

B3: HB-H18 (peptide)
peptide: RTAESLVCYWPGICFAQSER
modifications: not fully specified (bridges); cysteine pairing not given here; also: phage-displayed
notes: on phage
Question: Does B3 bind?
Answer: binds

Question: Does DICYIPGICWM (on phage) [HC-H6] bind?
Answer: binds

B4: HBC-H17 (peptide)
peptide: HAEICYFPGICWTER
modifications: not fully specified (bridges); cysteine pairing not given here; also: phage-displayed
notes: on phage
Question: Does B4 bind?
Answer: binds

Question: Does SREVCYYPGICWNGA (on phage) [HBC-H2] bind?
Answer: binds

Question: Does QTRSFCADWPRHESCKPLRG (on phage) [HA-H76] bind?
Answer: binds

Question: Does DSEVCYFPGICWSGT (on phage) [HBC-H1] bind?
Answer: binds

Question: Does EHDMCYFPGICWIAD (on phage) [HBC-H6] bind?
Answer: binds

B5: HBC-H4 (peptide)
peptide: GGEICYFPGICRVLP
modifications: not fully specified (bridges); cysteine pairing not given here; also: phage-displayed
notes: on phage
Question: Does B5 bind?
Answer: binds

Question: Does ETCYFPGICWL (on phage) [HC-H12] bind?
Answer: binds

Question: Does VRDMCYFPGICWKSE (on phage) [HBC-H19] bind?
Answer: binds

Question: Does LAEMCYFPGICWMSA (on phage) [HBC-H7] bind?
Answer: binds

B6: HBC-H3 (peptide)
peptide: GTEVCYFPGICWGGG
modifications: not fully specified (bridges); cysteine pairing not given here; also: phage-displayed
notes: on phage
Question: Does B6 bind?
Answer: binds

Question: Does ELCYFPGICWM (on phage) [HC-H20] bind?
Answer: binds

Question: Does EMCYFPGICWS (on phage) [HC-H7] bind?
Answer: binds

Question: Does ALCYFPGICWM (on phage) [HC-H14] bind?
Answer: binds

Question: Does EMCYFPGICWT (on phage) [HC-H9] bind?
Answer: binds

Question: Does ELCYFPGICWP (on phage) [HC-H15] bind?
Answer: binds

Question: Does EVCYFPGICWM (on phage) [HC-H19] bind?
Answer: binds

B7: HC-H11 (peptide)
peptide: EVCYFPGICWF
modifications: not fully specified (bridges); cysteine pairing not given here; also: phage-displayed
notes: on phage
Question: Does B7 bind?
Answer: binds

Question: Does DVCYFPGICWM (on phage) [HC-H8] bind?
Answer: binds

B8: HB-H13 (peptide)
peptide: ELCYFPGICWT
modifications: not fully specified (bridges); cysteine pairing not given here; also: phage-displayed
notes: on phage
Question: Does B8 bind?
Answer: binds

Question: Does EICYFPGICWM (on phage) [HC-H17] bind?
Answer: binds

Question: Does EICYFPGICWI (on phage) [HB-H12] bind?
Answer: binds

B9: HC-H16 (peptide)
peptide: EVCYFPGICWE
modifications: not fully specified (bridges); cysteine pairing not given here; also: phage-displayed
notes: on phage
Question: Does B9 bind?
Answer: binds

Question: Does DLCYFPGICWM (on phage) [HC-H3] bind?
Answer: binds

B10: HC-H2 (peptide)
peptide: KLCYFPGICWS
modifications: not fully specified (bridges); cysteine pairing not given here; also: phage-displayed
notes: on phage
Question: Does B10 bind?
Answer: binds
